Reference: US7005505
Read-outs that look alike come from different tables or passages of the source.

How the values were obtained:
FLT-1 IgG [1] = molecular target: FLT-1 IgG (UniProt P17948); assay: competition with 125I-VEGF165 for FLT-1-IgG, radioligand plate assay
[2] = molecular target: KDR receptors on endothelial cells (bovine); assay: cell-based or functional assay
FLT-1 IgG [3] = molecular target: FLT-1 IgG (UniProt P17948); assay: competition with 125I-VEGF165 for FLT-1-IgG, radioligand plate assay, no heparin
KDR-IgG [4] = molecular target: KDR-IgG (UniProt P35968); assay: competition with 125I-VEGF165 for KDR-IgG, radioligand plate assay, no heparin
[5] = molecular target: KDR receptors on endothelial cells (bovine); assay: cell-based or functional assay; remark: listed apart in the source
KDR-IgG [6] = molecular target: KDR-IgG (UniProt P35968); assay: competition with 125I-VEGF165 for KDR-IgG, radioligand plate assay

Chain of FLT-1 IgG (P17948 27-758): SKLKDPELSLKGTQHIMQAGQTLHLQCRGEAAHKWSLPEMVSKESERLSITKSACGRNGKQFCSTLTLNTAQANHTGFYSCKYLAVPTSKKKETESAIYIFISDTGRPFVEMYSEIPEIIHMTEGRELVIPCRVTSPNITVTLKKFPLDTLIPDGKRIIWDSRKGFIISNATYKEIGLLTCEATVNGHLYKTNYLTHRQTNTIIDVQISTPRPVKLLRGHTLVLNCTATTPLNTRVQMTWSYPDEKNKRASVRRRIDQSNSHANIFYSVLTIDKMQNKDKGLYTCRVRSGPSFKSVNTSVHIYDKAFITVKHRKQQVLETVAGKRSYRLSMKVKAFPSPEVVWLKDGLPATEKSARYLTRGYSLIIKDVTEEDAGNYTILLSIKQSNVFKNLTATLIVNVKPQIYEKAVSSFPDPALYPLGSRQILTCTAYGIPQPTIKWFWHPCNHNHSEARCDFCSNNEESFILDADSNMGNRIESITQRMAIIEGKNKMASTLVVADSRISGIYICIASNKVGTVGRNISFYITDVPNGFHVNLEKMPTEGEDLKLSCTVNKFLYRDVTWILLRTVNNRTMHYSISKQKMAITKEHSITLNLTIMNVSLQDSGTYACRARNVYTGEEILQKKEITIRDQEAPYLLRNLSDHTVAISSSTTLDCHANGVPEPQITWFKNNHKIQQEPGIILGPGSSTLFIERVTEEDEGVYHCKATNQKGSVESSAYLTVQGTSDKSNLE
Chain of KDR receptors on endothelial cells (bovine) (P12820 29-1306): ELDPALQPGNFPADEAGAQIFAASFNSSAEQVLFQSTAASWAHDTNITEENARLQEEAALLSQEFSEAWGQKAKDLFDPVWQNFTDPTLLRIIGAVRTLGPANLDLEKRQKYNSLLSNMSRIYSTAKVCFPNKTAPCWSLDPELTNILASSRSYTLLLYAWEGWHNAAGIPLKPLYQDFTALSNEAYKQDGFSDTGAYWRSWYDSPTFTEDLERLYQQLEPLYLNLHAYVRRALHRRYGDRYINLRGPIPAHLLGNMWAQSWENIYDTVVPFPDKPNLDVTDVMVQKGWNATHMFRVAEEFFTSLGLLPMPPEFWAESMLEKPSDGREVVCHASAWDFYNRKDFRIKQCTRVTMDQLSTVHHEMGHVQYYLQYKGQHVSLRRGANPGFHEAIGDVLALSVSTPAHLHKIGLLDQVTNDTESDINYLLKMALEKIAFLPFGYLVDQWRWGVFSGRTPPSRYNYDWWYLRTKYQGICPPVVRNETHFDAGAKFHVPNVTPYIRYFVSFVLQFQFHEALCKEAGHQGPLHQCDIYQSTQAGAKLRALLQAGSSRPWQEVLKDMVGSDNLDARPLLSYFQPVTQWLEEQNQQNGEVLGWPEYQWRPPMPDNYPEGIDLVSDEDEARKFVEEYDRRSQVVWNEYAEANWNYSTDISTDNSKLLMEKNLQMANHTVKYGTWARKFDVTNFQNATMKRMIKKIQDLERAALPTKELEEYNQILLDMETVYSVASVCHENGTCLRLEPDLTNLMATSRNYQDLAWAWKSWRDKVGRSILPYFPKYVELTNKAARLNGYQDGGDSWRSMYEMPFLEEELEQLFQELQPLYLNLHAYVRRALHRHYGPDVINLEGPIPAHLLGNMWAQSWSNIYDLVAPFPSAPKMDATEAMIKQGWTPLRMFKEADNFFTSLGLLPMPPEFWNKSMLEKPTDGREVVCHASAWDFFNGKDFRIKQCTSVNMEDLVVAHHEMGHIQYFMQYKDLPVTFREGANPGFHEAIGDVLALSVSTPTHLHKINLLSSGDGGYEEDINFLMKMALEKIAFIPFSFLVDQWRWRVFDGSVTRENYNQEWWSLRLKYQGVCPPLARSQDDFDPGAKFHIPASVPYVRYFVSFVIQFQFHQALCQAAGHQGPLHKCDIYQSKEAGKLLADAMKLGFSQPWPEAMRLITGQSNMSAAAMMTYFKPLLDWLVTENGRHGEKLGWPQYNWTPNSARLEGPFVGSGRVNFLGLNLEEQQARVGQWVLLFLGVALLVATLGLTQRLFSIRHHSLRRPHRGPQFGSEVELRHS
Chain of KDR-IgG (P35968 20-764): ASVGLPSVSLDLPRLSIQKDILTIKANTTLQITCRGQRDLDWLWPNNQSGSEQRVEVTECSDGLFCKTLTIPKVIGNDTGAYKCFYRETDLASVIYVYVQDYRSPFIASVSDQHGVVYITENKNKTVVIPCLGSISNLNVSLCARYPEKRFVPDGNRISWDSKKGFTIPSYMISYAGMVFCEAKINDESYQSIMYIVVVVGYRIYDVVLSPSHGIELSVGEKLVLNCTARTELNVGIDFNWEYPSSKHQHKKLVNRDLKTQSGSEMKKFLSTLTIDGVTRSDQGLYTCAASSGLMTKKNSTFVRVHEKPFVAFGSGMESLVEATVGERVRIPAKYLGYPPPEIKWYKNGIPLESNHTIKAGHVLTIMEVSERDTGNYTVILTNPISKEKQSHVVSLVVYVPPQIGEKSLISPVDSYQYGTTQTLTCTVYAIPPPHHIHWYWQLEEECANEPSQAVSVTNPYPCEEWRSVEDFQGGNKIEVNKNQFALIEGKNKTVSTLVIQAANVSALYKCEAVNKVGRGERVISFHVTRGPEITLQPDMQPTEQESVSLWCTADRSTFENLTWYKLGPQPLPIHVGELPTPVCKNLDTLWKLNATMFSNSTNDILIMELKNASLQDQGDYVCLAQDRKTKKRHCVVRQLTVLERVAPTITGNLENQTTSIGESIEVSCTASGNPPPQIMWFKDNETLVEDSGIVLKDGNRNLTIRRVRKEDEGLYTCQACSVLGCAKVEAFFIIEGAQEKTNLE

Question: For “K16A, D19T VEGF (from UniProt P15692 181-395) (ligand)”, which IC50 (FLT-1 IgG [1]) is on record?
Answer: 0.73 ng/mL

Question: And the Half-Maximal Effective Concentration, Endothelial Cells [2]?
Answer: 53 pM

Question: And the IC50 (FLT-1 IgG [3])?
Answer: 0.019 nM

Question: And the IC50 (KDR-IgG [4])?
Answer: 0.026 nM

Question: And the Half-Maximal Effective Concentration, Endothelial Cells [5]?
Answer: 2.05 ng/mL

Question: What about the IC50 (KDR-IgG [6]) of the same substance?
Answer: 2.1 ng/mL
